Data reported in patent publication US20240391954A1, “MC4R AGONIST PEPTIDES” (The Regents of the University of Michigan, priority 2021, published 2024).
Like-named read-outs stand apart in the source and are kept apart here. Positions of bridges follow the written chain, without caps; N, C: chain ends. Non-standard residues stand in square brackets, D forms with d. dPhe(4-Br) = N[C@H](Cc1ccc(Br)cc1)C(=O)O; dPhe(4-F) = N[C@H](Cc1ccc(F)cc1)C(=O)O; Cit = NC(=O)NCCC[C@H](N)C(=O)O; Nle = CCCC[C@H](N)C(=O)O; Aib = CC(C)(N)C(=O)O

Tests used:
human MC3R [1] = target: T1, human MC3R (human, UniProt P41968 1-323); assay: cell-based or functional assay
T1 sequence (P41968 whole entry): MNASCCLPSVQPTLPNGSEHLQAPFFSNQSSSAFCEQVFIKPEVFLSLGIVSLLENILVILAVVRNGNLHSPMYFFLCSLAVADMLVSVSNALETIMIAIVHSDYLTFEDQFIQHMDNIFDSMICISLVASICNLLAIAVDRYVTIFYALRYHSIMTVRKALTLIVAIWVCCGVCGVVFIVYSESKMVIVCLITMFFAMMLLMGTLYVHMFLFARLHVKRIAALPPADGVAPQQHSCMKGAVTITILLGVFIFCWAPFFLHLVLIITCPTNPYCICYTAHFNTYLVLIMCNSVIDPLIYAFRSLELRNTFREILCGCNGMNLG

human MC4R receptor [2] = target: T2, human MC4R receptor (human, UniProt P32245 1-332); assay: cell-based or functional assay
T2 sequence (P32245 whole entry): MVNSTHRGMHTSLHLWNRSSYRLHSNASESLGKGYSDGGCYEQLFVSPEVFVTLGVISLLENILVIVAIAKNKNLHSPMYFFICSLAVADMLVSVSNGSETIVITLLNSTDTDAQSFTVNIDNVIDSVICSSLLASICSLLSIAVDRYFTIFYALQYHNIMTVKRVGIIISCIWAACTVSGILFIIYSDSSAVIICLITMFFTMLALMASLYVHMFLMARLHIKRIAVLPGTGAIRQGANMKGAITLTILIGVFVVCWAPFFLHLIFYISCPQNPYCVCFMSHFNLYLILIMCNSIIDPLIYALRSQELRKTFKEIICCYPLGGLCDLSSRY

human MC4R receptor [3] = target: T2, human MC4R receptor; assay: cell-based or functional assay; remark: listed apart in the source
plasma protein [4] = assay: plasma ultrafiltration (Centrifree), LC-MS/MS; peptide 0.1 uM
plasma protein [5] = assay: plasma ultrafiltration (Centrifree), LC-MS/MS; peptide 1.0 uM
plasma protein [6] = assay: plasma ultrafiltration (Centrifree), LC-MS/MS; peptide 10.0 uM
human MC3R [7] = target: T1, human MC3R; assay: cell-based or functional assay; remark: listed apart in the source
human MC4R receptor [8] = target: T2, human MC4R receptor; assay: cell-based or functional assay; remark: listed apart in the source
human MC4R receptor [9] = target: T2, human MC4R receptor; assay: cell-based or functional assay; remark: listed apart in the source

Binder | % max activation (human MC3R [1]) [%] | cAMP EC50 (human MC3R [1]) [nM] | % max activation (human MC4R receptor [2]) [%] | cAMP EC50 (human MC4R receptor [2]) [nM] | MC4R selectivity vs MC1R (human MC4R receptor [3]) | MC4R selectivity vs MC3R (human MC4R receptor [3]) | Protein Binding (%) (plasma protein [4]) | Protein Binding (%) (plasma protein [5]) | Protein Binding (%) (plasma protein [6]) | % max activation (human MC3R [7]) [%] | cAMP EC50 (human MC3R [7]) [nM] | % max activation (human MC4R receptor [8]) [%] | cAMP EC50 (human MC4R receptor [8]) [nM] | MC4R selectivity vs MC1R (human MC4R receptor [9]) | MC4R selectivity vs MC3R (human MC4R receptor [9])
Ac-RC[dA]R[dPhe(4-F)]R[dW]C-NH2 (disulfide 2-8) [CTX-1236] | – | – | – | – | – | – | 45 | 49 | 51 | 66 | 2.6 | 97 | 1.9 | 2.01 | 1.36
Ac-RC[dA]R[dF]RWC-NH2 (disulfide 2-8; SMILES CC(=O)N[C@@H](CCCNC(=N)N)C(=O)N[C@H]1CSSC[C@@H](C(N)=O)NC(=O)[C@H](Cc2c[nH]c3ccccc23)NC(=O)[C@H](CCCNC(=N)N)NC(=O)[C@@H](Cc2ccccc2)NC(=O)[C@H](CCCNC(=N)N)NC(=O)[C@@H](C)NC1=O) [CTX-1211] | 91 | 2.1 | 96 | 0.38 | 3.12 | 5.49 | 51 | 63 | 61 | – | – | – | – | – | –

Now from value to binder:

% max activation (human MC3R [1]) [%] | cAMP EC50 (human MC3R [1]) [nM] | % max activation (human MC4R receptor [2]) [%] | cAMP EC50 (human MC4R receptor [2]) [nM] | MC4R selectivity vs MC1R (human MC4R receptor [3]) | MC4R selectivity vs MC3R (human MC4R receptor [3]) | Protein Binding (%) (plasma protein [4]) | Protein Binding (%) (plasma protein [5]) | Protein Binding (%) (plasma protein [6]) | % max activation (human MC3R [7]) [%] | cAMP EC50 (human MC3R [7]) [nM] | % max activation (human MC4R receptor [8]) [%] | cAMP EC50 (human MC4R receptor [8]) [nM] | MC4R selectivity vs MC1R (human MC4R receptor [9]) | MC4R selectivity vs MC3R (human MC4R receptor [9]) | Binder
93 | 1.6 | 102 | 0.2 | 3.16 | 8.38 | 37 | 39 | 39 | – | – | – | – | – | – | Ac-R[Nle]CR[dF]RWC-NH2 (disulfide 3-8; SMILES CCCC[C@H](NC(=O)[C@H](CCCNC(=N)N)NC(C)=O)C(=O)N[C@H]1CSSC[C@@H](C(N)=O)NC(=O)[C@H](Cc2c[nH]c3ccccc23)NC(=O)[C@H](CCCNC(=N)N)NC(=O)[C@@H](Cc2ccccc2)NC(=O)[C@H](CCCNC(=N)N)NC1=O) [CTX-1228]
– | – | – | – | – | – | 73 | 44 | 43 | 21 | – | – | – | – | – | Ac-RC[Aib]R[dPhe(4-Br)]R[dW]C-NH2 (disulfide 2-8; SMILES CC(=O)N[C@@H](CCCNC(=N)N)C(=O)N[C@H]1CSSC[C@@H](C(N)=O)NC(=O)[C@@H](Cc2c[nH]c3ccccc23)NC(=O)[C@H](CCCNC(=N)N)NC(=O)[C@@H](Cc2ccc(Br)cc2)NC(=O)[C@H](CCCNC(=N)N)NC(=O)C(C)(C)NC1=O) [CTX-1246]
28 | 4.9 | 94 | 1.7 | 134 | 2.9 | 45 | 39 | 41 | – | – | – | – | – | – | Ac-RC[dA][Cit][dF]RWC-NH2 (disulfide 2-8) [CTX-1285]
